Patent US20260029420A1, “ANTI-CB2 ANTIBODIES AND THEIR USE IN A FLOW CYTOMETRY ASSAY TO MEASURE CELL SURFACE CB2 EXPRESSION” (Hoffmann-La Roche Inc., priority 2022, published 2026)

Legend:
Assay type in all cases: binding
[1] = target: T1, CHODukx CRE hCB1 Cl.20 (Homo sapiens, UniProt P21554); experiment: Western blot of cell lysates; set-up: key to Western Blot signal intensity: “−” no signal; “+”-“+++++” signal intensity; “+”-“+++++” signal intensity; “+”-“+++++” signal intensity; “+”-“+++++” signal intensity; “+”-“+++++” signal intensity
T1 construct: expressed in transfected cells
T1 sequence (P21554 whole entry): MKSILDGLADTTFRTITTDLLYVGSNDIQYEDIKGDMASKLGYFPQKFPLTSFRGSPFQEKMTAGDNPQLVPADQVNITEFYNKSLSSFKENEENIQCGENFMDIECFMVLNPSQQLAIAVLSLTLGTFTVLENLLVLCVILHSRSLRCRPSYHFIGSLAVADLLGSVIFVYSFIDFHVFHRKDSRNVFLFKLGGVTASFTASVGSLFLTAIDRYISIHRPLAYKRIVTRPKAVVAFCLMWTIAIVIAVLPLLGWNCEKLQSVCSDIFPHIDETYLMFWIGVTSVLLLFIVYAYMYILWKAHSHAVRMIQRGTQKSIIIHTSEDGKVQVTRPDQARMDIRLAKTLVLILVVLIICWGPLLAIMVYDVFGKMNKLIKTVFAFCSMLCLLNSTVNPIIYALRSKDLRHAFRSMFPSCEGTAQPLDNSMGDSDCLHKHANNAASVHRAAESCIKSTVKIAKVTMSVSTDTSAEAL
Procedure: (§1) The positive clones (Table 1) were further characterized by immunofluorescence (IF; Table 2), Western Blot (Table 3, 1) and Immune precipitation (Table 4, 2) on full length hCB2, hCB1, mCB2 stable-transfected CHO-cell lines in addition to the 2 pANITA constructs.
For Western blot analysis, cells were collected using enzyme free dissociation buffer (Cell dissociation buffer enzyme-free Hanks'-based, Gibco), and washed two times with PBS. To prepare cell lysate, 10^6 cells were lysed with 0.1 ml of lysis buffer (1% NP40, 10% glycerol, 2 mM EDTA, 137 mM NaCl, 20 mM TrisHCl, pH8, Protease Inhibitors) for 10 min on ice. The lysate was cleared by centrifugation at 20′000 g for 5 min. For SDS-PAGE cell lysate was resolved on precast 4-12% gradient gels (NuPAGE® Novex 4-12% Bis-Tris Gel, Invitrogen) with MES running buffer according to the manufacturer's directions. The separation of proteins was visualized by Colloidal Blue staining. The proteins were electrophoretically transferred to nitrocellulose membrane using a dry-blotting system (iBlot, Invitrogen). After blocking the membrane for 16 h in blocking buffer (5% Milk in PBS) at 4° C., specific proteins were detected with appropriate dilutions of mAbs in blocking buffer for 1 h at approximately 20° C. […]

[2] = target: T2, pANITA3.1 mCB2 (JB176) (Mus musculus, UniProt P47936); experiment: Immunofluorescence on methanol-fixed transfected cells; set-up: key: “−” no fluorescence detected; “+”-“++++” intensity of fluorescent signal; “+”-“++++” intensity of fluorescent signal; “+”-“++++” intensity of fluorescent signal; “+”-“++++” intensity of fluorescent signal; settings: pANITA3.1 mCB2 (JB176) cells
T2 construct: expressed in transfected cells; host or cells: HEK293
T2 sequence (P47936 with tags, fused parts or gaps): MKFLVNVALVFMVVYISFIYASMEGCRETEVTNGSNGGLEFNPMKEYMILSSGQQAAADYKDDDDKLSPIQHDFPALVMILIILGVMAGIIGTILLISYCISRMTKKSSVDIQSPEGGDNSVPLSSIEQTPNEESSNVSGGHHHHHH
Procedure: as §1
(§2) For IF analysis, methanol-fixed cells were incubated for 20 min in a humid chamber at 37° C. with the respective hCB2 and mCB2 clones. After rinsing twice and washing for 15 min in PBS, 125 μg/ml FITC-conjugated […] anti-mouse IgG antibodies (RAM/IgG (H+L)/FITC, Nordic
(§3) Immunological Laboratories) diluted in PBS was added and incubated for 20 min in a humid chamber at 37° C. Cells were rinsed twice and washed for 15 min in PBS, mounted with mounting solution (50% PBS 50% glycerol) and covered with a coverslip. Staining was assessed by fluorescence microscopy on a Leica CTR500 fluorescence microscope and a Leica DFC300 FX digital camera.

[3] = target: T3, pANITA3.1 hCB2 (JB175) (Homo sapiens, UniProt P34972); experiment: as above; set-up: key: “−” no fluorescence detected; “+”-“++++” intensity of fluorescent signal; “+”-“++++” intensity of fluorescent signal; “+”-“++++” intensity of fluorescent signal; “+”-“++++” intensity of fluorescent signal; settings: pANITA3.1 hCB2 (JB175) cells
T3 construct: expressed in transfected cells; host or cells: HEK293
T3 sequence (P34972 with tags, fused parts or gaps): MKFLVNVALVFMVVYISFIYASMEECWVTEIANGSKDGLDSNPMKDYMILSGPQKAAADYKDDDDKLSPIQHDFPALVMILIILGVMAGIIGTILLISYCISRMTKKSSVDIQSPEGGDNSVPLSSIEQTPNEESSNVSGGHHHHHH
Procedure: as §1, §2, §3

[4] = tested on: CHODukx negative; experiment: Immunoprecipitation from whole cell lysates, negative control; set-up: key: “−” no signal; “+”-“+++++” signal intensity; “+”-“+++++” signal intensity; “+”-“+++++” signal intensity; “+”-“+++++” signal intensity; “+”-“+++++” signal intensity; settings: CHODukx negative lysate
Procedure: as §1
For immunoprecipitation (IP), whole cell lysates were incubated with the respective antibodies. IP was performed according to established protocols and subsequent western blot as described herein above.

[5] = target: T2, pANITA3.1 mCB2 (JB176); experiment: Western blot of cell lysates; set-up: key to Western Blot signal intensity: “−” no signal; “+”-“+++++” signal intensity; “+”-“+++++” signal intensity; “+”-“+++++” signal intensity; “+”-“+++++” signal intensity; “+”-“+++++” signal intensity
Procedure: as §1
(§4) For Western blot analysis, cells were collected using enzyme free dissociation buffer (Cell dissociation buffer enzyme-free Hanks'-based, Gibco), and washed two times with PBS. To prepare cell lysate, 10^6 cells were lysed with 0.1 ml of lysis buffer (1% NP40, 10% glycerol, 2 mM EDTA, 137 mM NaCl, 20 mM TrisHCl, pH8, Protease Inhibitors) for 10 min on ice. The lysate was cleared by centrifugation at 20′000 g for 5 min. For SDS-PAGE cell lysate was resolved on precast 4-12% gradient gels (NuPAGE® Novex 4-12% Bis-Tris Gel, Invitrogen) with MES running buffer according to the manufacturer's directions. The separation of proteins was visualized by Colloidal Blue staining. The proteins were electrophoretically transferred to nitrocellulose membrane using a dry-blotting system (iBlot, Invitrogen). After blocking the membrane for 16 h in blocking buffer (5% Milk in PBS) at 4° C., specific proteins were detected with appropriate dilutions of mAbs in blocking buffer for 1 h at approximately 20° C. The membrane was then washed four times for 5 minutes in blocking buffer and incubated with horseradish peroxidase conjugated anti-mouse IgG mAb (GAM/IgG (g-chain)/HRP, Sigma, A9917) diluted 1:10'000 in blocking buffer at approximately 20° C. for 1 h. After washing again, blots were developed using ECL Western blotting detection reagents (ECL Western Blotting Substrate, Pierce) to visualize bands.
(§5) Expression of recombinant proteins in pANITA3.1 transfected cells was confirmed by Western blot analysis using anti-His tag antibodies. Cells expressing rat Glucose-dependent insulinotropic polypeptide receptor (GIPR), also a G-protein coupled receptor, were used as a negative control.

[6] = target: T3, pANITA3.1 hCB2 (JB175); experiment: Western blot of cell lysates; set-up: key to Western Blot signal intensity: “−” no signal; “+”-“+++++” signal intensity; “+”-“+++++” signal intensity; “+”-“+++++” signal intensity; “+”-“+++++” signal intensity; “+”-“+++++” signal intensity
Procedure: as §1, §4, §5

B1: hCB2-1/622: murine IgG3 monoclonal anti-human CB2 antibody, VH SEQ ID NO: 1, VL SEQ ID NO: 2, HC SEQ ID NO: 3, LC SEQ ID NO: 4 (antibody)
heavy: EVQLQQSGPELVKPGASVKISCKTSGYTFTEYTMHWVRQSHGKSLEWIGGIDRYNGDTYYNQKFKDKATLTVDRSSSTAYMELRSLTSEDSAVYFCARNGAMDYWGQGISVTVSSATTTAPSVYPLVPGCSDTSGSSVTLGCLVKGYFPEPVTVKWNYGALSSGVRTVSSVLQSGFYSLSSLVTVPSSTWPSQTVICNVAHPASKTELIKRIEPRIPKPSTPPGSSCPPGNILGGPSVFIFPPKPKDALMISLTPKVTCVVVDVSEDDPDVHVSWFVDNKEVHTAWTQPREAQYNSTFRVVSALPIQHQDWMRGKEFKCKVNNKALPAPIERTISKPKGRAQTPQVYTIPPPREQMSKKKVSLTCLVTNFFSEAISVEWERNGELEQDYKNTPPILDSDGTYFLYSKLTVDTDSWLQGEIFTCSVVHEALHNHHTQKNLSRSPGK
light: DVVMTQTPLSLPVSLGDQASISCRSSQSLVHSNGNTYLHWFLQKPGQSPKLLIYKVSIRFSGVPDRFSGSGSGTDFTLKISRVEAEDLGVYFCSQSTHVPPLTFGAGTKLELKRADAAPTVSIFPPSSEQLTSGGASVVCFLNNFYPKDINVKWKIDGSERQNGVLNSWTDQDSKDSTYSMSSTLTLTKDEYERHNSYTCEATHKTSTSPIVKSFNRNEC
Western Blot signal intensity ([1]; CHODukx CRE hCB1 Cl.20 lysate): −
Western blot detection ([1]; hCB1): no mCB2, hCB1 or rat GIPR was detected
immunofluorescence signal intensity [2]: −
immunofluorescence signal intensity [3]: ++++
Immunoprecipitation signal intensity [4]: −
Western blot detection ([5]; mCB2): no mCB2, hCB1 or rat GIPR was detected
Western Blot signal intensity ([5]; pANITA3.1 mCB2 (JB176) lysate): −
Western blot detection ([6]; hCB2): distinct band
Western Blot signal intensity ([6]; pANITA3.1 hCB2 (JB175) lysate): +++
